Data reported in the supplement of paper PMC7877785.
± gives the uncertainty stated by the source.

Experiment: self-splicing fitness, log relative to wild type (ln ratio); higher = more splicing; Tetrahymena group I intron in knt gene, E. coli kanamycin selection, DiMSum; sequences stand for … in CUCUCU…GGAGGGAAAAGUUAUCAGGCAUGCACCUGGUAGCUAGUCUUUAAACCAAUAGAUUGCAUCGGUUUAAAAGGCAAGACCGUCAAAUUGCGGGAAAGGGGUCAACAGCCGUUCAGUACCAAGUCUCAGGGGAAACUUUGAGAUGGCCUUGCAAAGGGUAUGGUAAUAAGCUGACGGACAUGGUCCUAACCACGCAGCCAAGUCCUAAGUCAACAGAUCUUCUGUUGAUAUGGAUGCAGUUCACAGACUAAAUGUCGGUCGGGGAAGAUGUAUUCUUCUCAUAAGAUAUAGUCGGACCUCUCCUUAAUGGGAGCUAGCGGAUGAAGUGAUGCAACACUGGAGCCGCUGGGAACUAAUUUGUAUGCGAAAGUAUAUUGAUUAGUUUUGGAGUACUCGUGGUCG
Procedure, shortened: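 A randomised library covering all eight P1ex-region intron nucleotides was built with the intron in the knt kanamycin-resistance gene on pET-22b(+) and held in E. coli BL21(DE3). Cells were grown overnight at 37°C or 30°C on LB agar, with or without 25 μg/mL kanamycin, plus 100 μg/mL carbenicillin, 50 μM IPTG and 0.2% rhamnose, and pooled colonies were amplicon-sequenced on an Illumina HiSeq 2500. DiMSum fitness is the error-weighted combination of wild-type-normalised replicate fold changes, kanamycin versus none.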

Sequence | self-splicing fitness (ln) (30 °C) | self-splicing fitness (ln) (37 °C)
GUUCAGCAAUAUUACGAGAC | -1.99 ± 0.4 | -0.261 ± 0.22
GUUCAGCAAUAUUACGAGAG | -0.895 ± 0.12 | -0.725 ± 0.12
GUUCAGCAAUAUUACGAUAA | -0.196 ± 0.084 | 0.169 ± 0.097
GUUCAGCAAUAUUACGCAAA | -0.717 ± 0.17 | -0.625 ± 0.18
GUUCAGCAAUAUUACGCACA | 1.48 ± 0.34 | -1.71 ± 0.49
GUUCAGCAAUAUUACGCCCG | -1.59 ± 0.22 | -0.196 ± 0.28
GUUCAGCAAUAUUACGCCUG | -1.97 ± 0.2 | -0.936 ± 0.22
GUUCAGCAAUAUUACGCCUU | -0.418 ± 0.083 | 0.046 ± 0.082
GUUCAGCAAUAUUACGCGCU | -2.34 ± 0.18 | -1.13 ± 0.13
GUUCAGCAAUAUUACGCGGA | -4.19 ± 0.42 | -2.54 ± 0.23
GUUCAGCAAUAUUACGCGUC | -1.41 ± 0.071 | -0.257 ± 0.078
GUUCAGCAAUAUUACGGUAC | -2.69 ± 0.19 | 0.0172 ± 0.14
GUUCAGCAAUAUUACGGUUG | -1.9 ± 0.089 | -0.591 ± 0.1
GUUCAGCAAUAUUACGUACG | -1.32 ± 0.1 | -0.0258 ± 0.11
GUUCAGCAAUAUUACGUAGC | -0.047 ± 0.087 | -0.0432 ± 0.11
GUUCAGCAAUAUUACGUCAU | -0.56 ± 0.083 | -0.0298 ± 0.09
GUUCAGCAAUAUUACGUCGG | -3.7 ± 0.21 | -2.39 ± 0.23
GUUCAGCAAUAUUACGUGCG | -1.45 ± 0.068 | -0.215 ± 0.093
GUUCAGCAAUAUUACGUUAG | -1.3 ± 0.077 | -0.731 ± 0.11
GUUGAGCAAUAUUACGAAGA | – | -2.71 ± 0.48
GUUGAGCAAUAUUACGAGUA | – | -1.41 ± 0.39
GUUGAGCAAUAUUACGAUCC | -0.364 ± 0.16 | 0.0175 ± 0.28
GUUGAGCAAUAUUACGAUCG | -1.18 ± 0.39 | –
GUUGAGCAAUAUUACGCCCA | -1.93 ± 0.45 | -1.74 ± 0.38
GUUGAGCAAUAUUACGCCCG | -2.7 ± 0.49 | –
GUUGAGCAAUAUUACGCCUA | -1.73 ± 0.26 | -1.92 ± 0.3

Sequence | self-splicing fitness (ln) (30 °C) | self-splicing fitness (ln) (37 °C)
GUUGAGCAAUAUUACGCCUC | -2.09 ± 0.39 | –
GUUGAGCAAUAUUACGCGGG | -3.17 ± 0.15 | -2.51 ± 0.26
GUUGAGCAAUAUUACGCGUA | -3.48 ± 0.47 | -0.589 ± 0.18
GUUGAGCAAUAUUACGCUAA | -2.15 ± 0.27 | -2.26 ± 0.26
GUUGAGCAAUAUUACGGCAU | -1.32 ± 0.12 | -0.928 ± 0.17
GUUGAGCAAUAUUACGGCCC | -1.28 ± 0.19 | -0.757 ± 0.29
GUUGAGCAAUAUUACGGCGG | – | -2.66 ± 0.36
GUUGAGCAAUAUUACGGCUC | -2.04 ± 0.31 | -1.38 ± 0.31
GUUGAGCAAUAUUACGGGGC | -2.38 ± 0.19 | -2.84 ± 0.29
GUUGAGCAAUAUUACGGUCA | -1.81 ± 0.26 | -2.45 ± 0.29
GUUGAGCAAUAUUACGGUCC | -2.05 ± 0.15 | -1.3 ± 0.19
GUUGAGCAAUAUUACGGUCU | -3.49 ± 0.21 | -2.56 ± 0.18
GUUGAGCAAUAUUACGUCAA | -2.76 ± 0.28 | –
GUUGAGCAAUAUUACGUCAG | -2.67 ± 0.17 | -2.86 ± 0.31
GUUGAGCAAUAUUACGUCAU | -2.26 ± 0.21 | -2.44 ± 0.38
GUUGAGCAAUAUUACGUCCU | -1.27 ± 0.17 | -1.47 ± 0.21
GUUGAGCAAUAUUACGUUCC | -1.13 ± 0.26 | -1.31 ± 0.34
GUUUAGCAAUAUUACGAAAU | -1.54 ± 0.11 | -1.85 ± 0.19
GUUUAGCAAUAUUACGACAC | -0.84 ± 0.091 | 0.0746 ± 0.14
GUUUAGCAAUAUUACGACAG | -3.68 ± 0.32 | -2.43 ± 0.34
GUUUAGCAAUAUUACGAUAG | -3.5 ± 0.32 | -1.88 ± 0.31
GUUUAGCAAUAUUACGCCAC | -1.72 ± 0.46 | –
GUUUAGCAAUAUUACGCUGU | -1.52 ± 0.12 | -2 ± 0.14
GUUUAGCAAUAUUACGGAUU | -1.48 ± 0.097 | -0.737 ± 0.12
GUUUAGCAAUAUUACGGGUG | -2.84 ± 0.21 | -1.53 ± 0.17
GUUUAGCAAUAUUACGUACU | -0.0508 ± 0.3 | 0.333 ± 0.33

Sequence | self-splicing fitness (ln) (30 °C) | self-splicing fitness (ln) (37 °C)
GUUUAGCAAUAUUACGUAGC | -1.61 ± 0.2 | -0.831 ± 0.17
GUUUAGCAAUAUUACGUAGU | -1.84 ± 0.14 | -0.706 ± 0.14
GUUUAGCAAUAUUACGUCCA | -1.53 ± 0.24 | -1.18 ± 0.28
GUUUAGCAAUAUUACGUGAA | -1.35 ± 0.12 | -2.04 ± 0.18
GUUUAGCAAUAUUACGUUCU | -1.41 ± 0.14 | -0.628 ± 0.17
GUUUAGCAAUAUUACGUUGC | -3.73 ± 0.27 | -2.59 ± 0.34
UAAAAGCAAUAUUACGACCG | 0.0682 ± 0.1 | 0.499 ± 0.15
UAAAAGCAAUAUUACGACUG | 0.248 ± 0.1 | -0.671 ± 0.12
UAAAAGCAAUAUUACGAGCG | -0.13 ± 0.099 | -0.191 ± 0.11
UAAAAGCAAUAUUACGAUCC | -2.13 ± 0.34 | -2.05 ± 0.27
UAAAAGCAAUAUUACGAUCU | -0.413 ± 0.079 | 0.0961 ± 0.099
UAAAAGCAAUAUUACGCACA | -0.0521 ± 0.12 | 0.516 ± 0.16
UAAAAGCAAUAUUACGCAGG | -1.55 ± 0.12 | -1.2 ± 0.11
UAAAAGCAAUAUUACGCCUG | -0.364 ± 0.088 | 0.229 ± 0.12
UAAAAGCAAUAUUACGCGAG | -0.897 ± 0.075 | -0.186 ± 0.095
UAAAAGCAAUAUUACGGAUC | -2.28 ± 0.29 | -1.81 ± 0.24
UAAAAGCAAUAUUACGGCAG | -0.504 ± 0.079 | -0.106 ± 0.097
UAAAAGCAAUAUUACGGCCC | -2.11 ± 0.34 | -1.28 ± 0.33
UAAAAGCAAUAUUACGGUCA | 0.0761 ± 0.086 | 0.333 ± 0.087
UAAAAGCAAUAUUACGGUUG | -1.53 ± 0.075 | -0.701 ± 0.096
UAAAAGCAAUAUUACGUAGA | -2.7 ± 0.12 | -1.45 ± 0.14
UAAAAGCAAUAUUACGUCCA | 0.0284 ± 0.091 | -0.623 ± 0.12
UAAAAGCAAUAUUACGUGAU | -2.46 ± 0.11 | -2.04 ± 0.16
UAAAAGCAAUAUUACGUGUA | -1.86 ± 0.055 | -0.743 ± 0.056
UAAAAGCAAUAUUACGUGUG | -1.07 ± 0.052 | -0.712 ± 0.069
UAAAAGCAAUAUUACGUUGU | -3.71 ± 0.14 | -1.96 ± 0.14
